Assay results published in the RNAGym collection of RNA variant scans (doi:10.1073/pnas.2313332121).
Variants at the floor of the assay were thinned out.

B1: TPR 5TU (parent)
chain: GGAUCUUCUCGAUCUAACAAAAAAGACAAAUCUGCCACAAAGCUUGAGAGCAUCUUCGGAUGCAGAGGCGGCAGCCUUCGGUGGCGCGAUAGCGCCAACGUUCUCAACUAUGACACGCAAAACGCGUGCUCCGUUGAAUGGAGUUUAUCAUG

Variants of: B1
Experiment: polymerase ribozyme fitness, log enrichment relative to wild type (log ratio); higher = more active; in vitro selection for triplet polymerase activity
How it was run: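 Mutant libraries were PCR-built and transcribed for each subunit of a heterodimeric triplet polymerase ribozyme and selected for one round in triplicate at −7 °C, frozen, before gel excision of extended constructs and streptavidin-bead capture. Input and output libraries were Illumina-sequenced, keeping genotypes with ≥10 input reads and ≥1 read per output. Fitness is a logarithmic ratio of genotype to wild-type enrichment, in base 2, using inverse-variance-weighted replicate averages.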

| Variant | polymerase ribozyme fitness (log ratio) |
| --- | --- |
| A3G G83U | -0.444 |
| G136U | -1.9 |
| A21G A49C G84A G92U A97U A138G | ≤ -4.2 |
| C18U G34C U44A C75G C96A C99G A119C | ≤ -4.2 |
| A3C A37G A91C A138C G140U | ≤ -4.2 |
| U6A A17G C27U A66U U145A | ≤ -4.2 |
| C10G G88U C96U C132G | ≤ -4.2 |
| A98G | -0.208 |
| U15G C43U C57A C85G A106C | ≤ -4.2 |
| A120G G124A | 0.00161 |
| C18U A40U C85U C96U C116U | 0.0691 |
| G50U A107U | -3.73 |
| A21U C35A A106U A119U A138C | ≤ -4.2 |
| A41U G81A | -0.718 |
| G84A C125A C132A G140U | -1.25 |
| G71U C93U | -3.57 |
| C57G A97U | -0.704 |
| A37C A60U C63U G86U A98G | -3.99 |
| U82G A106U C118U | -0.65 |
| U33C U45A C85G G133U | ≤ -4.2 |
| C35U A60G G83A A150G | -2.56 |
| A29C G94C A97G A98G U104G | ≤ -4.2 |
| A26G A40C G68U | ≤ -4.2 |
| U90A A106C G128A | ≤ -4.2 |

| Variant | polymerase ribozyme fitness (log ratio) |
| --- | --- |
| A41U G86U | -1.92 |
| A40G G48A C125A | ≤ -4.2 |
| A16U C51A G74U C87A A107U | ≤ -4.2 |
| C96A U135A | -1.48 |
| C93A A98U | -0.828 |
| A12U A24U G81U G84A | 0.337 |
| A17U A37C G46A C85G C114U | ≤ -4.2 |
| A41C G42A A49G G88C U135A | ≤ -4.2 |
| A3U C27U G81A C96A | -3.11 |
| C18G G42C C87U A138C U145A | ≤ -4.2 |
| A91U G94U C96G A115G G141C | ≤ -4.2 |
| C10U C14G U15G A29C C38U G58A A91G U127G C149U | ≤ -4.2 |
| C93U C116G | -2.2 |
| A41C C87U A142G | -1.45 |
| C38A G59U C85U U90C | ≤ -4.2 |
| U15G U31A U55A C93G | -2.44 |
| A122G | -0.303 |
| C32A G86C | ≤ -4.2 |
| A28U G50A U77C C85A C96G C105G G141A U144C | ≤ -4.2 |
| C105U A113U | -1.37 |
| C93U A122G C129U U146G | -3.83 |
| A40G C54G G74A G83C C105G | ≤ -4.2 |
| C18U C51A A52G A122C | -1.98 |
| C14A U55G U56A G92U A150G | -4.11 |

| Variant | polymerase ribozyme fitness (log ratio) |
| --- | --- |
| C8U A142C | -3.25 |
| A20C C85G A113U | -3.57 |
| A21U C57A A107C U139C A147C | ≤ -4.2 |
| G67A C87U C103U C114G C116U A119G | ≤ -4.2 |
| C10U C32A C38G C43A G83A A91U C95G A97U U144G | ≤ -4.2 |
| G70A G124C U144C | ≤ -4.2 |
| U9A C27G A73U C93U U102G G117C | ≤ -4.2 |
| C57U G84A C93U | -2.9 |
| C87U C125G | -1.53 |
| U31A C85U U101A A150U | -1.46 |
| A17G G84U | -2 |
| C18G G83U C95U | -2.08 |
| G34U A39U G48A U77G C79G C95U | ≤ -4.2 |
| C57U G86U A97C | -1.82 |
| A12U G50A C85A C87U G133C | ≤ -4.2 |
| C85U C116U A147U | 0.541 |
| A37C A40G G50U G86A A97U | ≤ -4.2 |
| G50A C54G C116U | -2.17 |
| U13G A52G G59C C95A C118U | -2.5 |
| C27G C38A C85A C87G G126A A137G | ≤ -4.2 |
| C87A | ≤ -4.2 |
| C96U G140U | -3.33 |
| U31C C95U A97U C99U G133U A150G | ≤ -4.2 |
| C38A C95G | -1.41 |

| Variant | polymerase ribozyme fitness (log ratio) |
| --- | --- |
| U6A U9G C14G G83C G112U G136C | ≤ -4.2 |
| U15G A28U A49C A66C C79A A97U G124A | ≤ -4.2 |
| C18U A91G A120G C132U G141C | ≤ -4.2 |
| A3C | -0.142 |
| A21C C35A C87U | -3.56 |
| A19U A24C G86A G140U | ≤ -4.2 |
| C93U A120G | -0.649 |
| A29G C54A | -3.78 |
| A19U U53A G81U C96A | -2.73 |
| C14G A22U A39U | ≤ -4.2 |
| C76A G84U A121G A122G U146A | -3.68 |
| U13A C103A | -2.51 |
| A23U A24U A73G G88A A91C C114U | ≤ -4.2 |
| G34A A37G U61C | ≤ -4.2 |
| C85G U102A G133U A137U G141C | -3.8 |
| C10A G48C G59A C103G U104A C105U A113C U146A | ≤ -4.2 |
| A40C C57A G68A G86U A121U | ≤ -4.2 |
| A12G C27G U55A A110G G143A U145G U148G | ≤ -4.2 |
| A28U G42C G83C A121U | ≤ -4.2 |
| C38A U82G A91G A106C A138G | ≤ -4.2 |
| U6G C10A A40G A60G C75A G80C A107U G126A G133U U139G G143C | ≤ -4.2 |
| A28C G81C G92U C103G | ≤ -4.2 |
| A22C G58A C72A C87G C125G G126U | ≤ -4.2 |
| A52C U102G A147U | -3.59 |

| Variant | polymerase ribozyme fitness (log ratio) |
| --- | --- |
| A29U U90G C95U A115G G117U A120U | ≤ -4.2 |
| C96G G143U | -3.01 |
| C51U G67A U77G C116G G126A C129A | ≤ -4.2 |
| C51G A66U G67A C118U | ≤ -4.2 |
| G25C A28U C54U G83A C99U G124A | ≤ -4.2 |
| G42C U55A | -4.09 |
| A66C U134C | ≤ -4.2 |
| A22U A89U C105U | 0.731 |
| A29C C35A U53A C57U G92A C118U A122G G136A C149U | ≤ -4.2 |
| G133C | -1.65 |
| A19U U31C C132G | -2.74 |
| U45G G70A G92U G94A C116G G152U | ≤ -4.2 |
| A39U G46U A47C A52C C87U A98G U104G C114A C125U | ≤ -4.2 |
| A39U C93U U144C | -3.54 |
| U4A G25U C54U G92U G124A | -2.53 |
| C32G U33G G92A C114U | -4.15 |
| A91C A137C A150C U151G | ≤ -4.2 |
| U55A U90A G100C C118U | ≤ -4.2 |
| C5G G84A A147C | -0.43 |
| G46C A47C C72U C103A | ≤ -4.2 |
| A3G C57A C87A | ≤ -4.2 |
| A30U G50C G71C A107G | ≤ -4.2 |
| C35U G59C C76G G124U | ≤ -4.2 |
| A120U U148G | -3.59 |

| Variant | polymerase ribozyme fitness (log ratio) |
| --- | --- |
| U45G C93U G141C | ≤ -4.2 |
| G86U A107G C116A G136U A138C | ≤ -4.2 |
| A73U A115G | -2.08 |
| C10U A29U A47U G84U C103A C116G U145G G152U | ≤ -4.2 |
| C14U A49G U53A C85U C116A | -3.48 |
| G94U A142G | -3.45 |
| A39U A49G G58A G65A U111G A150G | ≤ -4.2 |
| G46A G50C C79A G84U C95U A115C | ≤ -4.2 |
| A19U A20U C57G G58A G88U G92C C125A C131U U148C C149A | ≤ -4.2 |
| C69A U134G | -3.35 |
| A21G C57U C93U G136C | -4.04 |
| A19G A40C G48U U61A G74C C87A G126U | ≤ -4.2 |
| A23G C76G C87U A119G G140U | ≤ -4.2 |
| C75G C93A | -4.14 |
| U31A C38G G86A G136A | -1.16 |
| A49C A60G | -3.61 |
| C35U C114U U139A | ≤ -4.2 |
| C54U C85U A98G U134A | -3.35 |
| A49U U55A C96A | -1.06 |
| G59C A89G U139C U144C | -3.75 |
| U56G C129U | -0.408 |
| C10G A19G A37G G42C C57U G59A C129A | ≤ -4.2 |
| A40U A147G | -3.6 |
| A19G A26U G84A A147G | -3.45 |

| Variant | polymerase ribozyme fitness (log ratio) |
| --- | --- |
| A24U C87G C96U | ≤ -4.2 |
| C14U A22G | -3.07 |
| G94A G124A U146A | -1.09 |
| C14A A26G G67A A73U G86C A121U C123G A138C U146A | ≤ -4.2 |
| A24C C38A U77A G84C A89U | ≤ -4.2 |
| U53A C85U C105G | ≤ -4.2 |
| A21C G84U | -1.28 |
| G58C C93A | -2.61 |
| C85G A150C | -4.1 |
| G81A G92C C99U G124C G133U | ≤ -4.2 |
| C5A U31C C36A G62C A66G C85G U104A | ≤ -4.2 |
| C10G C87U | -3.38 |
| A24U U78C C87A | ≤ -4.2 |
| C93A C103A U135A A138G | ≤ -4.2 |
| A40G G83U G92A C99G A107U | ≤ -4.2 |
| C14G C32A U61G A120C | ≤ -4.2 |
| U55A U82G G92A C103U G124A | -3.62 |
| C75G G86U C95U C99U | ≤ -4.2 |
| C69U G86A | -1.13 |
| G92U C99G | -1.57 |
| C96U G136U | -2.74 |
| U9C A52C U61A C96G C103G A142C | -4 |
| U6A A17G G58C A60C C69U C118U U146C | -4.14 |
